Data on one molecule can be found in publication PMC2173303.

The target in the data set is HSF1 (Homo sapiens, UniProt Q00613 1-529). The data set can be described thus: EMSA.
HSF1, sequence (Q00613 whole entry): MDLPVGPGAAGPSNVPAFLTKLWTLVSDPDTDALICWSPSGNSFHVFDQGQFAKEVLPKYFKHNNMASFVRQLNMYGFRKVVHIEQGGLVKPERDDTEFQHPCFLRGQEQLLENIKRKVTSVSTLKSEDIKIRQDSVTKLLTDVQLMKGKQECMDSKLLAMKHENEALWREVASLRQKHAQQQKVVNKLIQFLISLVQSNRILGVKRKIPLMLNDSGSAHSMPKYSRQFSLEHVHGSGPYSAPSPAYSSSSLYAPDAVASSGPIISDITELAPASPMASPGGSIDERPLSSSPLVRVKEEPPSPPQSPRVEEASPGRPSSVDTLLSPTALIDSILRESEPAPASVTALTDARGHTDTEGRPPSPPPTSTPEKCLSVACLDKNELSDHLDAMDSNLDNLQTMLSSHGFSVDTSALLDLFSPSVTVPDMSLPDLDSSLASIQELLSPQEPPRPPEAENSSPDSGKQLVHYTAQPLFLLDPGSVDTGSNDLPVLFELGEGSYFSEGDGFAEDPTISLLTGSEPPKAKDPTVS

B1: HSE probe (dsDNA)
DNA 1: TCGGCTGGAATATTCCCGACCTGGCAGCCGA
DNA 2: TCGGCTGCCAGGTCGGGAATATTCCAGCCGA
With B1, the binding result was “binds”.
